{"source": "patent US20250186614A1", "about": "“COMPACT DRUG RESPONSIVE DOMAINS FOR REGULATION OF FUNCTION/ABUNDANCE AND DELIVERY OF POLYPEPTIDE PAYLOADS” (OBSIDIAN THERAPEUTICS, INC., priority 2022, published 2025)", "molecules": {"B1": {"name": "FKBP-146: FKBP13 DRD Q72R, Q84E, A117H, L104S, I136L; SEQ ID NO: 96 (protein)", "chain": "HCPIKSRKGDVLHMHYTGKLEDGTEFDSSLPRNQPFVFSLGTGEVIKGWDQGLLGMCEGEKRKSVIPSELGYGERGHPPKIPGGATLVFEVELLKLER", "modifications": "Description of sequence: FKBP13-AcGFP-mCherry Fusion; Construct Name: FKBP-146; FKBP13 DRD in Construct : FKBP13 (mutated to match FKBP12 active site Q72R Q84E A117H) (DRD L104S I136L)"}, "B2": {"name": "FKBP-150: FKBP13 DRD Q72R, Q84E, A117H, E61G, G124P; SEQ ID NO: 100 (protein)", "chain": "B1 chain with E21G, S64L, G84P, L96I", "modifications": "Description of sequence: FKBP13-AcGFP-mCherry Fusion; Construct Name: FKBP-150; FKBP13 DRD in Construct : FKBP13 (mutated to match FKBP12 active site Q72R Q84E A117H) (DRD E61G G124P)"}, "B3": {"name": "FKBP-149: FKBP13 DRD Q72R, Q84E, A117H, T64Q, L94G; SEQ ID NO: 99 (protein)", "chain": "B1 chain with T24Q, L54G, S64L, L96I", "modifications": "Description of sequence: FKBP13-AcGFP-mCherry Fusion; Construct Name: FKBP-149; FKBP13 DRD in Construct : FKBP13 (mutated to match FKBP12 active site Q72R Q84E A117H) (DRD T64Q L94G)"}, "B4": {"name": "FKBP-118: FKBP13 DRD Q72R, Q84E, A117H, V85R; SEQ ID NO: 68 (protein)", "chain": "B1 chain with V45R, S64L, L96I", "modifications": "Description of sequence: FKBP13-AcGFP-mCherry Fusion; Construct Name: FKBP-118; FKBP13 DRD in Construct : FKBP13 (mutated to match FKBP12 active site Q72R Q84E A117H) (DRD V85R)"}, "B5": {"name": "FKBP-264: FKBP13 DRD-AcGFP construct of Table 10 (protein)", "chain": "B1 chain with S39W, E44R, V45R, S64L, H77W, L96I", "modifications": "Description of sequence: Construct Name: FKBP-264; Mutation(s): Q72R S79W Q84R A117W DRD V85R"}, "B6": {"name": "FKBP-267 (protein)", "chain": "B1 chain with V45R, M56W, S64L, H77W, L96I", "modifications": "Description of sequence: Construct Name: FKBP-267; Mutation(s): Q72R Q84E A117W V85R DRD M96W"}, "B7": {"name": "FKBP-270: FKBP13 DRD-AcGFP construct of Table 10 (protein)", "chain": "B1 chain with L12M, V45R, S64L, H77W, L96I", "modifications": "Description of sequence: Construct Name: FKBP-270; Mutation(s): Q72R Q84E A117W V85R DRD L52M"}, "B8": {"name": "FKBP-119: FKBP13 DRD Q72R, Q84E, A117W, K101W; SEQ ID NO: 69 (protein)", "chain": "B1 chain with K61W, S64L, H77W, L96I", "modifications": "Description of sequence: FKBP13-AcGFP-mCherry Fusion; Construct Name: FKBP-119; FKBP13 DRD in Construct : FKBP13 (mutated to match FKBP12 active site Q72R Q84E A117W) (DRD K101W )"}, "B9": {"name": "FKBP-268: FKBP13 DRD-AcGFP construct of Table 10 (protein)", "chain": "B1 chain with C2R, V45R, S64L, H77W, L96I", "modifications": "Description of sequence: Construct Name: FKBP-268; Mutation(s): Q72R Q84E A117W V85R DRD C42R"}, "B10": {"name": "FKBP-148: FKBP13 DRD Q72R, Q84E, A117H, D62N, D67N, D90N, M96G, E130K; SEQ ID NO: 98 (protein)", "chain": "B1 chain with D22N, D27N, D50N, M56G, S64L, E90K, L96I", "modifications": "Description of sequence: FKBP13-AcGFP-mCherry Fusion; Construct Name: FKBP-148; FKBP13 DRD in Construct : FKBP13 (mutated to match FKBP12 active site Q72R Q84E A117H) (DRD D62N D67N D90N M96G E130K)"}, "B11": {"name": "FKBP-120: FKBP13 DRD Q72R, Q84E, A117H, K101W; SEQ ID NO: 70 (protein)", "chain": "B1 chain with K61W, S64L, L96I", "modifications": "Description of sequence: FKBP13-AcGFP-mCherry Fusion; Construct Name: FKBP-120; FKBP13 DRD in Construct : FKBP13 (mutated to match FKBP12 active site Q72R Q84E A117H) (DRD K101W)"}, "B12": {"name": "FKBP-147: FKBP13 DRD Q72R, Q84E, A117H, T64R, S108G, E137F; SEQ ID NO: 97 (protein)", "chain": "B1 chain with T24R, S64L, S68G, L96I, E97F", "modifications": "Description of sequence: FKBP13-AcGFP-mCherry Fusion; Construct Name: FKBP-147; FKBP13 DRD in Construct : FKBP13 (mutated to match FKBP12 active site Q72R Q84E A117H) (DRD T64R S108G E137F)"}, "B13": {"name": "FKBP-260: FKBP13 DRD-AcGFP construct of Table 10 (protein)", "chain": "B1 chain with V45R, K61N, S64L, H77W, L96I", "modifications": "Description of sequence: Construct Name: FKBP-260; Mutation(s): Q72R Q84E A117W V85R DRD K101N"}, "B14": {"name": "FKBP-271: FKBP13 DRD-AcGFP construct of Table 10 (protein)", "chain": "B1 chain with V45R, K63R, S64L, H77W, L96I", "modifications": "Description of sequence: Construct Name: FKBP-271; Mutation(s): Q72R Q84E A117W V85R DRD K103R"}, "B15": {"name": "FKBP-265: FKBP13 DRD-AcGFP construct of Table 10 (protein)", "chain": "B1 chain with T42W, E44R, V45R, S64L, H77W, L96I", "modifications": "Description of sequence: Construct Name: FKBP-265; Mutation(s): Q72R T82W Q84R A117W DRD V85R"}, "B16": {"name": "FKBP-266 (protein)", "chain": "B1 chain with D10L, V45R, S64L, H77W, L96I", "modifications": "Description of sequence: Construct Name: FKBP-266; Mutation(s): Q72R Q84E A117W V85R DRD D50L"}, "B17": {"name": "FKBP-274: FKBP13 DRD-AcGFP construct of Table 10 (protein)", "chain": "B1 chain with V45R, S64L, E69K, H77W, L96I", "modifications": "Description of sequence: Construct Name: FKBP-274; Mutation(s): Q72R Q84E A117W V85R DRD E109K"}, "B18": {"name": "FKBP-269 (protein)", "chain": "B1 chain with H13Q, V45R, S64L, H77W, L96I", "modifications": "Description of sequence: Construct Name: FKBP-269; Mutation(s): Q72R Q84E A117W V85R DRD H53Q"}, "B19": {"name": "FKBP-262: FKBP13 DRD-AcGFP construct of Table 10 (protein)", "chain": "B1 chain with P3R, V45R, S64L, H77W, K95Y, L96I", "modifications": "Description of sequence: Construct Name: FKBP-262; Mutation(s): Q72R Q84E A117W V85R DRD P43R K135Y"}, "B20": {"name": "FKBP-273: FKBP13 DRD-AcGFP construct of Table 10 (protein)", "chain": "B1 chain with V45R, S64L, E74G, H77W, L96I", "modifications": "Description of sequence: Construct Name: FKBP-273; Mutation(s): Q72R Q84E A117W V85R DRD E114G"}}, "tested_on": "Jurkat cells", "experiment": "Tacrolimus dose response of FKBP13-AcGFP-mCherry constructs stably transduced into Jurkat cells, GFP MFI by flow cytometry", "format": "cell-based", "design": "Basal: unit not given here", "summary_of_the_method": "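GFP geometric MFI was read by flow cytometry in mCherry+ cells and curve-fitted against tacrolimus dose. Cells were Jurkat E6-1, lentivirus-transduced with FKBP13-AcGFP-mCherry fusion constructs until 10-25% mCherry-positive on day 5 post-transduction.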", "key": {"[1]": {"conditions": "tacrolimus, Jurkat cells stably transduced, Table 6"}, "[2]": {"conditions": "tacrolimus, Jurkat cells, Table 13"}}, "note": "Numbering of substitutions follows the chain as printed. Names may count otherwise.", "data": [{"molecule": "B1", "values": [{"measurement": "Fold Change", "setting": "[1]", "value": 1.19}]}, {"molecule": "B2", "values": [{"measurement": "Fold Change", "setting": "[1]", "value": 21.15}]}, {"molecule": "B3", "values": [{"measurement": "Fold Change", "setting": "[1]", "value": 39.28}]}, {"molecule": "B4", "values": [{"measurement": "Fold Change", "setting": "[1]", "value": 12.95}]}, {"molecule": "B5", "values": [{"measurement": "Basal", "setting": "FIG. 45, BR1 (Biorep 1)", "value": 127}, {"measurement": "FC", "setting": "FIG. 45, BR1 (Biorep 1)", "value": 37.06}, {"measurement": "At 10 uM", "setting": "FIG. 45, BR1 (Biorep 1)", "value": 4706}, {"measurement": "Fold Change", "setting": "[2]", "value": 37.08}]}, {"molecule": "B6", "values": [{"measurement": "Fold Change", "setting": "[2]", "value": 67}]}, {"molecule": "B7", "values": [{"measurement": "FC", "setting": "tacrolimus, FIGS. 33 and 34", "value": 38}, {"measurement": "Fold Change", "setting": "[2]", "value": 38}]}, {"molecule": "B8", "values": [{"measurement": "Fold Change", "setting": "[1]", "value": 31.91}]}, {"molecule": "B9", "values": [{"measurement": "FC", "setting": "tacrolimus, FIGS. 31 and 32", "value": 18}, {"measurement": "Fold Change", "setting": "[2]", "value": 18}]}, {"molecule": "B10", "values": [{"measurement": "Fold Change", "setting": "[1]", "value": 1.09}]}, {"molecule": "B11", "values": [{"measurement": "Fold Change", "setting": "[1]", "value": 30.53}]}, {"molecule": "B12", "values": [{"measurement": "Fold Change", "setting": "[1]", "value": 26.65}]}, {"molecule": "B13", "values": [{"measurement": "FC", "setting": "tacrolimus, FIGS. 31 and 32", "value": 51}, {"measurement": "Fold Change", "setting": "[2]", "value": 51}]}, {"molecule": "B14", "values": [{"measurement": "FC", "setting": "tacrolimus, FIGS. 33 and 34", "value": 19}, {"measurement": "Fold Change", "setting": "[2]", "value": 19}]}, {"molecule": "B15", "values": [{"measurement": "Basal", "setting": "FIG. 45, BR1 (Biorep 1)", "value": 78}, {"measurement": "FC", "setting": "FIG. 45, BR1 (Biorep 1)", "value": 53.72}, {"measurement": "At 10 uM", "setting": "FIG. 45, BR1 (Biorep 1)", "value": 4190}, {"measurement": "Basal", "setting": "FIG. 45, BR2 (Biorep 2)", "value": 102}, {"measurement": "FC", "setting": "FIG. 45, BR2 (Biorep 2)", "value": 41.58}, {"measurement": "At 10 uM", "setting": "FIG. 45, BR2 (Biorep 2)", "value": 4241}, {"measurement": "FC", "setting": "tacrolimus, FIGS. 31 and 32", "value": 58}, {"measurement": "Fold Change", "setting": "[2]", "value": 53.72}]}, {"molecule": "B16", "values": [{"measurement": "Fold Change", "setting": "[2]", "value": 60}]}, {"molecule": "B17", "values": [{"measurement": "FC", "setting": "tacrolimus, FIGS. 33 and 34", "value": 34}, {"measurement": "Fold Change", "setting": "[2]", "value": 34}]}, {"molecule": "B18", "values": [{"measurement": "Fold Change", "setting": "[2]", "value": 44}]}, {"molecule": "B19", "values": [{"measurement": "Basal", "setting": "FIG. 49, BR1 (Biorep 1)", "value": 59.5}, {"measurement": "FC", "setting": "FIG. 49, BR1 (Biorep 1)", "value": 66.64}, {"measurement": "At 10 uM", "setting": "FIG. 49, BR1 (Biorep 1)", "value": 3965}, {"measurement": "Basal", "setting": "FIG. 49, BR2 (Biorep 2)", "value": 73.7}, {"measurement": "FC", "setting": "FIG. 49, BR2 (Biorep 2)", "value": 52.21}, {"measurement": "At 10 uM", "setting": "FIG. 49, BR2 (Biorep 2)", "value": 3848}, {"measurement": "FC", "setting": "tacrolimus, FIGS. 31 and 32", "value": 73}, {"measurement": "Fold Change", "setting": "[2]", "value": 73}]}, {"molecule": "B20", "values": [{"measurement": "FC", "setting": "tacrolimus, FIGS. 33 and 34", "value": 36}, {"measurement": "Fold Change", "setting": "[2]", "value": 36}]}]}
